In patent publication US6913892 (H LUNDBECK A S, dated 2005):
Where two headings read alike, the source gives them in different places. Where no end group is shown, it is not given here.

T1: human Y1 receptor (human, UniProt P25929 1-384)
T1 construct: Transiently expressed in COS-7 cells; membranes used; also called cloned human Y1 receptor (Larhammar et al., 1992)
T1 sequence: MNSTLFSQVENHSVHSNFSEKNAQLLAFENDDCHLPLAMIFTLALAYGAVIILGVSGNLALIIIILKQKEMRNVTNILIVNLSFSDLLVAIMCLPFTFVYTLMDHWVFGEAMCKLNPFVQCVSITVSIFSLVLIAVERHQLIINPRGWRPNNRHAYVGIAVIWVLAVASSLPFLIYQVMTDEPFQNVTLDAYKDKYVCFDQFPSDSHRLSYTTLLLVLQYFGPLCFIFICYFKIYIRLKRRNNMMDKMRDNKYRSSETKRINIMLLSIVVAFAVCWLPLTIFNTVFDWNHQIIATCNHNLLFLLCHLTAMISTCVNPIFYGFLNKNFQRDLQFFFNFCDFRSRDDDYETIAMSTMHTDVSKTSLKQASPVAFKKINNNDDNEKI


Experiments:
[1] = target: T2, human Y4 receptor (human, UniProt P0DQD5 1-375); assay: cell-based or functional assay
[2] = target: T3, rat Y4 receptor (rat, UniProt Q63447 1-375); assay: 125I-PYY displacement, COS-7 membranes
T3 construct: Full-length receptor (375 aa) transiently expressed in COS-7 cells; membranes used; also called rs16b; rat Y4 homolog

[3] = target: T2, human Y4 receptor; assay: 125I-PYY displacement, COS-7 membranes
[4] = target: T2, human Y4 receptor; assay: 125I-PYY displacement, COS-7 membranes (as in Table 3)
Protocol: (§1) Radioligand Binding to Membrane Suspensions: Membrane suspensions were diluted in binding buffer supplemented with 0.1% bovine serum albumin and 0.1% bacitracin to yield an optimal membrane protein concentration: ~0.02 mg/ml for human Y1 receptors, ~0.015 mg/ml for hp25a receptors, and ~0.25 mg/ml for SK-N-Be(2). […] Incubations were terminated by filtration over Whatman GF/C filters (pre-coated with 0.5% polyethyleneimine and air-dried before use). […] Binding data were analyzed using nonlinear regression and statistical techniques available in the GraphPAD InPlot package (San Diego, Calif.). […] Whatman GF/C filters were from Brandel (Gaithersburg, Md.). Bio-Rad Reagent was from Bio-Rad (Hercules, Calif.). Bovine serum albumin and bacitracin were from Sigma (St. Louis, Mo.). All other materials were reagent grade.

[5] = target: T2, human Y4 receptor; assay: 125I-PYY displacement, COS-7 membranes; remark: listed apart in the source
Protocol: as §1

[6] = target: T2, human Y4 receptor; assay: 125I-PYY displacement, COS-7 membranes; remark: listed apart in the source
[7] = target: T1, human Y1 receptor; assay: 125I-PYY displacement, COS-7 membranes
Protocol: as §1

[8] = target: T1, human Y1 receptor; assay: 125I-PYY displacement, COS-7 membranes; remark: listed apart in the source
Protocol: (§2) Data are representative of at least two independent experiments, with each point measured once or in duplicate.
(§3) Radioligand Binding to Membrane Suspensions: Membrane suspensions were diluted in binding buffer supplemented with 0.1% bovine serum albumin and 0.1% bacitracin to yield an optimal membrane protein concentration: ~0.02 mg/ml for human Y1 receptors, ~0.015 mg/ml for hp25a receptors, and ~0.25 mg/ml for SK-N-Be(2). […] Incubations were terminated by filtration over Whatman GF/C filters (pre-coated with 0.5% polyethyleneimine and air-dried before use). […] Binding data were analyzed using nonlinear regression and statistical techniques available in the GraphPAD InPlot package (San Diego, Calif.).

[9] = target: T2, human Y4 receptor; assay: 125I-PYY displacement, COS-7 membranes; remark: listed apart in the source
Protocol: as §2, §3

T2 sequence (P0DQD5 whole entry): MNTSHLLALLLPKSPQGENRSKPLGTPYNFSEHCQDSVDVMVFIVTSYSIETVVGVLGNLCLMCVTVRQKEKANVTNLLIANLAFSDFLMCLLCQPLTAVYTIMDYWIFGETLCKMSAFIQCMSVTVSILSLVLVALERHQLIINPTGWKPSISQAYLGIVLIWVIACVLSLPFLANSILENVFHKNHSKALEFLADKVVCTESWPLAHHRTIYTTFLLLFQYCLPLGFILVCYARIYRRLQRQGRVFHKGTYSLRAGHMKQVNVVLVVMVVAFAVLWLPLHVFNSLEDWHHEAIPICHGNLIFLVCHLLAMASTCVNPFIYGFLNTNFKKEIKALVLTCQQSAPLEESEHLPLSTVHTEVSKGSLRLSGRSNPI
T3 sequence (Q63447 whole entry R262P): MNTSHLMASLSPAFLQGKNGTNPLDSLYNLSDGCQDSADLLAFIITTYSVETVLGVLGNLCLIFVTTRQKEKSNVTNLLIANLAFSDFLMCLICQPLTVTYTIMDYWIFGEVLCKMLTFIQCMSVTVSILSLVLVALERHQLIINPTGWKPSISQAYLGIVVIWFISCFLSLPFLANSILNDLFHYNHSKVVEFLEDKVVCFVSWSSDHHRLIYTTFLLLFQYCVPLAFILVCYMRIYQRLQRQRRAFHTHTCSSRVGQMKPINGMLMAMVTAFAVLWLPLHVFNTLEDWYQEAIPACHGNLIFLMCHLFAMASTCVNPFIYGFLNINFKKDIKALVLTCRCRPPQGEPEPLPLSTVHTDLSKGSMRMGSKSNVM

EC50, inhibition of forskolin-stimulated cAMP accumulation, LM(tk-) cells [1] [nM] | Ki [2] [nM] | Ki [4] [nM] | Ki [5] [nM] | Binder | other results
0.09 | 0.12 |  |  | APLEPVYPGDNATPEQMAQYAADLRRYINMLTRPRY-NH2 (peptide, UniProt P01298 30-65, looked up, mature; also called human PP; PP, human) [human pancreatic polypeptide] | Ki [3]: 0.02 nM
0.27 |  | 0.09 | 0.09 | APLEPVYPGDNATPEQMAQYAADLRRYINMITRQRY-NH2 (peptide, UniProt P01298 30-65, looked up, mature) [[Ile^31, Gln^34]PP, human] | 
 | 0.15 |  | 0.05 | APLEPEYPGDNATPEQMAQYAAELRRYINMLTRPRY-NH2 (peptide, UniProt P01302 30-65, looked up, mature; also called bovine PP) [PP, bovine] | Ki [6]: 0.05 nM; Ki [7]: 240 nM
0.08 |  |  |  | PLEPVYPGDNATPEQMAQYAADLRRYINMLTRPRY-NH2 (peptide, UniProt P01298 31-65, looked up) [PP2-36, human] | 
3500 |  | > 88 |  | YINMLTRPRY-NH2 (peptide, UniProt P01298 56-65, looked up, range 27-36) [PP27-36, human] | 
89000 | 20 | > 10000 | 350 | LTRPRY-NH2 (peptide, UniProt P01298 60-65, looked up, range 60-65; also called human PP31-36) [PP31-36, human] | Ki [6]: 350 nM
 | 0.2 |  | 0.18 | APLEPMYPGDYATHEQRAQYETQLRRYINTLTRPRY-NH2 (peptide, UniProt P06303 30-65, looked up, mature; also called rat PP) [PP, rat] | Ki [6]: 0.18 nM; Ki [7]: 460 nM
47 |  |  |  | human peptide YY (C-terminal amide, mature; also called human PYY; PYY, human) peptide: not shown | Ki [7]: 0.19 nM; Ki [8]: 0.085 nM; Ki [9]: 0.62 nM
20 |  |  |  | human neuropeptide Y (C-terminal amide) peptide: not shown | 
 |  |  | 4000 | FMRF-NH2 (Tetrapeptide invertebrate neurotransmitter; also called FMRF-amide; FMRFamide) [Phe-Met-Arg-Phe-Amide] | 
580 |  | 39 | 39 | TPEQMAQYAADLRRYINMLTRPRY-NH2 (peptide, UniProt P01298 42-65, looked up, range 13-36) [PP13-36, human] | 
 |  |  |  | SPEELSRYYASLRHYLNLVTRQRY-NH2 (peptide, UniProt P68005 13-36, looked up, range 13-36; also called PYY13-36, porcine) [porcine PYY13-36] | Ki [9]: 47 nM
